{"source": "patent US8957029", "about": "(MAX PLANCK GESELLSCHAFT ZUR FORDERUNG DER WISSENSCHAFTEN E V, dated 2015)", "binders": {"B1": {"name": "F-Lifeact (chemically synthesized 17aa Lifeact peptide tagged with fluorescein at its N-terminus) (peptide)", "peptide": "fluorescein-MGVADLIKKFESISKEE", "notes": "also called fluorescein conjugated Lifeact; F-Lifeact peptide"}}, "target": "non-muscle actin", "experiment": "F-actin co-sedimentation, peptide fluorescence in pellet over total, hyperbolic fit", "note": "No end group written: not given here. fluorescein = fluorescein tag at the N-terminus"}
{"binder": "B1", "values": [{"measurement": "Kd", "value": 5.4, "unit": "µM"}]}
